Measured values reported in patent US20240182536A1 (MURAL ONCOLOGY, published 2024).

B1: IL-18 variant G3R, N91M, K53A (ligand)
chain: YFRKLESKLSVIRNLNDQVLFIDQGNRPLFEDMTDSDMRDNAPRTIFIISMYADSQPRGMAVTISVKSEKISTLSSENKIISFKEMNPPDMIKDTKSDIIFFQRSVPGHDNKMQFESSSYEGYFLASEKERDLFKLILKKEDELGDRSIMFTVQNED
notes: also called G3R/K53A/N91M
B2: IL-18 variant G3F, N91E, K53S (ligand)
chain: YFFKLESKLSVIRNLNDQVLFIDQGNRPLFEDMTDSDMRDNAPRTIFIISMYSDSQPRGMAVTISVKSEKISTLSSENKIISFKEMNPPDEIKDTKSDIIFFQRSVPGHDNKMQFESSSYEGYFLASEKERDLFKLILKKEDELGDRSIMFTVQNED
notes: also called G3F/K53S/N91E
B3: mouse IL-18 G3V/H6K/L59K on monoFc scaffold (Fc fusion, not shown: small tags and cut ends)
chain: NFVRLKSTTAVIRNINDQVLFVDKRQPVFEDMTDIDQSASEPQTRLIIYMYKDSEVRGKAVTLSVKDSKMSTLSSKNKIISFEEMDPPENIDDIQSDLIFFQKRVPGHNKMEFESSLYEGHFLASQKEDDAFKLILKKKDENGDKSVMFTLTNLHQSNGGPSVFLFPPKPKDTLMISRTPEVTCVVVDVSHEDPEVKFNWYVDGVEVHNAKTKPREEQYNSTYRVVSVLTVLHQDWLNGKEYKCKVSNKALPAPIEKTISKAKGQPREPQVYTLPPSREEMTKNQVNLTCLVKGFYPSDIAVEWESNGQPENNYKTTPPVLDSDGSFFLNSTLTVDKSRWQQGNVFSCSVMHEALHNHYTQKSLSLS
B4: mouse IL-18 G3V/L59R on monoFc scaffold (Fc fusion, not shown: small tags and cut ends)
chain: NFVRLHSTTAVIRNINDQVLFVDKRQPVFEDMTDIDQSASEPQTRLIIYMYKDSEVRGRAVTLSVKDSKMSTLSSKNKIISFEEMDPPENIDDIQSDLIFFQKRVPGHNKMEFESSLYEGHFLASQKEDDAFKLILKKKDENGDKSVMFTLTNLHQSNGGPSVFLFPPKPKDTLMISRTPEVTCVVVDVSHEDPEVKFNWYVDGVEVHNAKTKPREEQYNSTYRVVSVLTVLHQDWLNGKEYKCKVSNKALPAPIEKTISKAKGQPREPQVYTLPPSREEMTKNQVNLTCLVKGFYPSDIAVEWESNGQPENNYKTTPPVLDSDGSFFLNSTLTVDKSRWQQGNVFSCSVMHEALHNHYTQKSLSLS
B5: mouse IL-18 G3V/L59M on monoFc scaffold (Fc fusion, not shown: small tags and cut ends)
chain: NFVRLHSTTAVIRNINDQVLFVDKRQPVFEDMTDIDQSASEPQTRLIIYMYKDSEVRGMAVTLSVKDSKMSTLSSKNKIISFEEMDPPENIDDIQSDLIFFQKRVPGHNKMEFESSLYEGHFLASQKEDDAFKLILKKKDENGDKSVMFTLTNLHQSNGGPSVFLFPPKPKDTLMISRTPEVTCVVVDVSHEDPEVKFNWYVDGVEVHNAKTKPREEQYNSTYRVVSVLTVLHQDWLNGKEYKCKVSNKALPAPIEKTISKAKGQPREPQVYTLPPSREEMTKNQVNLTCLVKGFYPSDIAVEWESNGQPENNYKTTPPVLDSDGSFFLNSTLTVDKSRWQQGNVFSCSVMHEALHNHYTQKSLSLS
B6: mouse IL-18 G3V/L59K on monoFc scaffold (Fc fusion, not shown: small tags and cut ends)
chain: NFVRLHSTTAVIRNINDQVLFVDKRQPVFEDMTDIDQSASEPQTRLIIYMYKDSEVRGKAVTLSVKDSKMSTLSSKNKIISFEEMDPPENIDDIQSDLIFFQKRVPGHNKMEFESSLYEGHFLASQKEDDAFKLILKKKDENGDKSVMFTLTNLHQSNGGPSVFLFPPKPKDTLMISRTPEVTCVVVDVSHEDPEVKFNWYVDGVEVHNAKTKPREEQYNSTYRVVSVLTVLHQDWLNGKEYKCKVSNKALPAPIEKTISKAKGQPREPQVYTLPPSREEMTKNQVNLTCLVKGFYPSDIAVEWESNGQPENNYKTTPPVLDSDGSFFLNSTLTVDKSRWQQGNVFSCSVMHEALHNHYTQKSLSLS

Columns and labels:
[1] = molecular target: T1, IL-18 receptors on HEK-Blue IL-18 reporter cells (InvivoGen) (UniProt Q13478 19-541; O95256 20-599); assay: cell-based or functional assay
T1 sequence (looked up) 1: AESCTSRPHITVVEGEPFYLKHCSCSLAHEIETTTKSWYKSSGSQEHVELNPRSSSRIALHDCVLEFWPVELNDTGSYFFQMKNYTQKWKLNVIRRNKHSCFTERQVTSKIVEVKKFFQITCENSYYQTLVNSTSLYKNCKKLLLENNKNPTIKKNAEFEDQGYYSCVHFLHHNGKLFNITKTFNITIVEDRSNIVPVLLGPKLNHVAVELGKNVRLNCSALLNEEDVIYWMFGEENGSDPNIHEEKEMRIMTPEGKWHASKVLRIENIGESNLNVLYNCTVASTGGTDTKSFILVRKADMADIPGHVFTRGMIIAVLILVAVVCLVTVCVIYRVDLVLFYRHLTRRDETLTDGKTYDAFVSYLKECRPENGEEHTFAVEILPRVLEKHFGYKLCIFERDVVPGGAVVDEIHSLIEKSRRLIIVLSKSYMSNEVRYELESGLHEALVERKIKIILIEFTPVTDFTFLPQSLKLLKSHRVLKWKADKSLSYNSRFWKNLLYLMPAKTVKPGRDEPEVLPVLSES
T1 sequence (looked up) 2: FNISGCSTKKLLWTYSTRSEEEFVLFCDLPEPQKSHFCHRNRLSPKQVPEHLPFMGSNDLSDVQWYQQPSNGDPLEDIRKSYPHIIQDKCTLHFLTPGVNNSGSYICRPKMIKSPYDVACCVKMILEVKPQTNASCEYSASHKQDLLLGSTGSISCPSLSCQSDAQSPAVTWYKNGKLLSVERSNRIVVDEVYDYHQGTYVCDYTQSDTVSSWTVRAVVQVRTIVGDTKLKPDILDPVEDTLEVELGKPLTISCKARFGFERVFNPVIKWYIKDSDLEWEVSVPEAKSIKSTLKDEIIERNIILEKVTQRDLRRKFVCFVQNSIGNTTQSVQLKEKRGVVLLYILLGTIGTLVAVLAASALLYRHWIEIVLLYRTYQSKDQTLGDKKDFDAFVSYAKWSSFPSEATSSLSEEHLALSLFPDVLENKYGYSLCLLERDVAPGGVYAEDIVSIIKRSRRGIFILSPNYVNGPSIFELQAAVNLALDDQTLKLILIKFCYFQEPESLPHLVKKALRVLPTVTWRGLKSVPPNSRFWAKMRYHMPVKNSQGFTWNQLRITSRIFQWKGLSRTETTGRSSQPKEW

[2] = molecular target: T2, human IL-18 binding protein (IL-18BP) (human, UniProt O95998 31-194); assay: cell-based or functional assay
T2 sequence (looked up): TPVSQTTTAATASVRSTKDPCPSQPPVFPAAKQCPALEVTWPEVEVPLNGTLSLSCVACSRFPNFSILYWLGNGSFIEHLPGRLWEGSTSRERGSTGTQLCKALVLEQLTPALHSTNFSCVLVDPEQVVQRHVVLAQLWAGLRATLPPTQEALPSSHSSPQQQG

[3] = molecular target: T2, human IL-18 binding protein (IL-18BP); assay: Octet BLI
Experimental: (§1) Octet 96red instrument was used to determine affinities of IL18 proteins to BP or receptors. 5-10 ug/ml analyte proteins were used for loading on Sartorius tips (AHC or SA). […] 120-180 s loading, 200 s association and 800 s dissociation were used for kinetics. 3-7 data points were used to calculate affinities.
Select G3/K53-substitution containing IL-18 variants and select G3/K53/N91-substitution containing TL-18 variants were tested for activity in the HEK-blue activity assay and for binding affinity to IL-18BP. As shown in the data of Table 15 and Table 16 below, each variant had similar or better activity than WT IL-18, and retained substantial activity in the presence of IL-18BP.

[4] = molecular target: T3, mouse IL-18 receptor alpha (mouse, UniProt Q61098 20-326, limits assumed); assay: Octet BLI, monoFc scaffold
T3 construct: also called Mouse IL18Ra; mouse IL-18R alpha
T3 sequence (looked up): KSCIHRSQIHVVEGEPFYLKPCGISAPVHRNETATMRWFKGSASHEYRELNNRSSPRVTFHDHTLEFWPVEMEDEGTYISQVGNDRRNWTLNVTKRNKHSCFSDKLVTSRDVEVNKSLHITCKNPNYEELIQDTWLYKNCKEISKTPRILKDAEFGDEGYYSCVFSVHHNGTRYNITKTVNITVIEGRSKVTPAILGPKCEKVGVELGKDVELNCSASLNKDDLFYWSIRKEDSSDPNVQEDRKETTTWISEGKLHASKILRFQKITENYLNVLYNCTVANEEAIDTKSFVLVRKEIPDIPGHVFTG
Experimental: as §1
(§2) Several mouse variants were next tested for binding affinity to mouse IL-18R alpha and mouse IL-18BP.

[5] = molecular target: T4, mouse IL-18 binding protein (mouse, UniProt Q9Z0M9 29-193); assay: Octet BLI, monoFc scaffold
T4 construct: also called Mouse IL18BP; Mouse IL-18BP
T4 sequence (looked up): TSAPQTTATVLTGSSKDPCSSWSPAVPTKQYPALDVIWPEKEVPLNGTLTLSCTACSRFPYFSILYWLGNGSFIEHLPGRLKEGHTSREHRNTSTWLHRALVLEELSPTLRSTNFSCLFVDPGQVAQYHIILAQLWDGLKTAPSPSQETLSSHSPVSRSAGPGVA
Experimental: as §1, §2

Row | Binder | HEK-Blue Ec50 (pM), -IL-18BP [1] [pM] | HEK-Blue Ec50 (pM), +IL-18BP (50 nM) [2] [pM] | Kd [3] [nM] | koff [3] [s⁻¹] | kon [3] [M⁻¹ s⁻¹] | Kd [4] [nM] | binding result [5] | Kd [5] [nM]
1 | B1 | 0.06 | 1.67 | 1.5 | 0.00031 | 208000 |  |  | 
2 | B2 | 2.55 | 10.7 | 9.1 | 0.00195 | 213000 |  |  | 
3 | B3 |  |  |  |  |  | 24.2 | no binding | 
4 | B4 |  |  |  |  |  | 51.5 | no binding | 
5 | B5 |  |  |  |  |  | 17.4 |  | 2.47
6 | B6 |  |  |  |  |  | 14.5 | no binding | 
